Reference: FireProtDB (doi:10.1016/j.jmb.2004.06.010)
Where “and” joins values, the source holds several entries; their conditions need not be identical. Equal values may be shown once.

B1: Alpha-lactalbumin, P00712 (parent)
chain: MMSFVSLLLVGILFHATQAEQLTKCEVFQKLKDLKDYGGVSLPEWVCTAFHTSGYDTQAIVQNNDSTEYGLFQINNKIWCKDDQNPHSRNICNISCDKFLDDDLTDDIVCAKKILDKVGINYWLAHKALCSEKLDQWLCEKL

Variants of: B1
Settings: Capra hircus, pH 7, 25 °C, GdnHCl, CD, sodium cacodylate 50 mM, NaCl 50 mM, structure 1HFY, whole UniProt chain shown

| Variant | denaturant m value | denaturant midpoint (higher = more stable) | unfolding free energy | denaturant m value (transition: 3) | denaturant midpoint (higher = more stable) (transition: 3) | unfolding free energy (transition: 3) |
| --- | --- | --- | --- | --- | --- | --- |
| I108V | 1.95 kcal/mol/M | 2.33 M | 19 kJ/mol | 1.3 kcal/mol/M and 0.65 kcal/mol/M | 2.95 M and 1.09 M |  |
| L71A | 2.03 kcal/mol/M | 1.15 M | 9.79 kJ/mol | 1.52 kcal/mol/M and 0.51 kcal/mol/M | 1.16 M and 1.13 M |  |
| D106N | 2.18 kcal/mol/M | 2.07 M | 18.9 kJ/mol | 0.72 kcal/mol/M | 1.49 M | 4.52 kJ/mol |
| V46A | 2.7 kcal/mol/M | 1.81 M | 20.4 kJ/mol | 1.9 kcal/mol/M and 0.8 kcal/mol/M | 2.17 M and 0.94 M |  |
| W79A | 2.4 kcal/mol/M | 1.59 M | 16 kJ/mol | 1.79 kcal/mol/M and 0.61 kcal/mol/M | 1.58 M and 1.65 M | 11.8 kJ/mol and 4.18 kJ/mol |
| L115A | 1.72 kcal/mol/M | 2 M | 14.4 kJ/mol | 1.09 kcal/mol/M and 0.63 kcal/mol/M |  |  |
| L124A |  |  |  | 2 kcal/mol/M and 0.74 kcal/mol/M | 2.55 M and 1.22 M |  |
| V109A | 2.22 kcal/mol/M | 2.99 M | 27.7 kJ/mol | 1.64 kcal/mol/M and 0.58 kcal/mol/M | 3.5 M and 1.54 M |  |
| I114V | 1.92 kcal/mol/M | 1.92 M | 15.4 kJ/mol | 1.21 kcal/mol/M and 0.71 kcal/mol/M | 2.46 M and 1 M |  |
| L31A | 2.6 kcal/mol/M | 1.21 M | 13.3 kJ/mol |  | 1.37 M and 0.62 M |  |
| V27A | 2.1 kcal/mol/M | 2.26 M | 19.8 kJ/mol | 1.48 kcal/mol/M | 2.76 M | 17.2 kJ/mol |
| L129A | 2.29 kcal/mol/M | 2.38 M | 22.8 kJ/mol | 1.69 kcal/mol/M and 0.6 kcal/mol/M |  |  |
| W137F | 2.12 kcal/mol/M | 2.49 M | 22 kJ/mol |  |  |  |
| Y122F | 1.82 kcal/mol/M | 1.76 M | 13.4 kJ/mol | 1.3 kcal/mol/M and 0.52 kcal/mol/M | 1.64 M and 2.07 M | 8.91 kJ/mol and 4.52 kJ/mol |
| K112A | 2.12 kcal/mol/M | 1.83 M | 16.2 kJ/mol | 1.51 kcal/mol/M and 0.61 kcal/mol/M | 2.07 M and 1.24 M |  |
| I74V |  |  |  | 0.62 kcal/mol/M and 0.75 kcal/mol/M | 2.38 M and 1.04 M | 6.19 kJ/mol and 3.26 kJ/mol |
